How the values were obtained:
HKv2.1 = biological target: T1, HKv2.1 (Homo sapiens, UniProt Q14721); assay: Two-electrode voltage clamp of Kv2.1 currents in Xenopus oocytes coexpressing 1v; assay type: cell-based
T1 sequence (Q14721 1-858): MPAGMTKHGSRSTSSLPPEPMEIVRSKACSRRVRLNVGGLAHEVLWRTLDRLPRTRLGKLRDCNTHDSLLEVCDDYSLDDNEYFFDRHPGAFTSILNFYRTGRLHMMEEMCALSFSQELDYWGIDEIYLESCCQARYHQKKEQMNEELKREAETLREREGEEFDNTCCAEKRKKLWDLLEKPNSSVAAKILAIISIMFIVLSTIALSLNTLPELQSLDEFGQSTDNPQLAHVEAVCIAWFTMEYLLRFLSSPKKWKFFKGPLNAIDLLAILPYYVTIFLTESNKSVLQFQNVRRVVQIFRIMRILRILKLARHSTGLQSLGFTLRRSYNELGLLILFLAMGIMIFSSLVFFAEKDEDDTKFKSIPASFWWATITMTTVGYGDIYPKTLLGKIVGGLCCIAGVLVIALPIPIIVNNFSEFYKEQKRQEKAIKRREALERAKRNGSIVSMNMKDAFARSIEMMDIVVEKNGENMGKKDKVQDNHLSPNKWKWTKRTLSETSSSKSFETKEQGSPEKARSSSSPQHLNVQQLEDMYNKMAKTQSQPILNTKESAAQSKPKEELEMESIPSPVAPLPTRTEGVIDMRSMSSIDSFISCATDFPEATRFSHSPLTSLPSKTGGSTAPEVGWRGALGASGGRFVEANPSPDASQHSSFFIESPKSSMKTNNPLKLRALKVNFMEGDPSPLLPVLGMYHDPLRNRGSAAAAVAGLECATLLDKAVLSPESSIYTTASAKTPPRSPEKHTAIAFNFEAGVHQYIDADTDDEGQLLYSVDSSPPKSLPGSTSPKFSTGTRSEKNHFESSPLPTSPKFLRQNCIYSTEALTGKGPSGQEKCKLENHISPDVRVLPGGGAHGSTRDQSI
Method: (§1) Frogs underwent no more than two surgeries and surgeries were performed by well established techniques. Frogs were anesthetized with ice. Total cRNA (1-10 ng) was injected into stage IV Xenopus oocytes that were harvested the previous day. The Xenopus oocytes were incubated in ND96 containing (in mM) 96 NaCl, 2 KCl, 1.8 CaCl2, 1 MgCl2, 5 HEPES, pH 7.6, plus (Gentamycin 50 μg/ml) at 18° C. Xenopus oocytes were studied 3-7 days after injection. The two-electrode voltage-clamp recordings were performed in ND96 solution using a TURBO TEC 03 Clamp Amplifier (ALA Scientific Instruments, Westbury, N.Y.). Both electrodes were filled with 3 M KCl and had electrode resistances ranging from 0.2-1 MOhm. The current signals were filtered at 1000 Hz before transferred on a PC (Gateway, Calif.) using the PULSE software (HEKA, Germany).
(§2) To investigate whether the modulatory effects of these KChIPs are specific for Kv4 channels, KChIP1 was coexpressed with Kv1.4 and Kv2.1 in Xenopus oocytes. Xenopus oocytes were injected with 1-3 ng/oocyte of cRNA which was prepared using standard in vitro transcription techniques (Sambrook et al. 1989. Molecular Cloning: a laboratory manual, Cold Spring Harbor Press). Currents in Xenopus oocytes were measured with a two-electrode voltage clamp. […] As a final control for the KChIP effects and to verify that the KChIPs' effects on Kv4 currents are independent of expression system, the above kinetic analyses were repeated after expressing Kv4.3 and KChIP mRNAs in Xenopus oocytes. The effects KChIP1 on for Kv4.3 in the Xenopus oocyte system were strikingly similar to those on Kv4.2 in CHO cells (Table 1).

rKv4.3 = assay: Two-electrode voltage clamp of Kv4.3 currents in Xenopus oocytes co-injected with KChIP cRNA; assay type: cell-based, rat
Chain of rKv4.3 (Q62897 1-487 limits assumed): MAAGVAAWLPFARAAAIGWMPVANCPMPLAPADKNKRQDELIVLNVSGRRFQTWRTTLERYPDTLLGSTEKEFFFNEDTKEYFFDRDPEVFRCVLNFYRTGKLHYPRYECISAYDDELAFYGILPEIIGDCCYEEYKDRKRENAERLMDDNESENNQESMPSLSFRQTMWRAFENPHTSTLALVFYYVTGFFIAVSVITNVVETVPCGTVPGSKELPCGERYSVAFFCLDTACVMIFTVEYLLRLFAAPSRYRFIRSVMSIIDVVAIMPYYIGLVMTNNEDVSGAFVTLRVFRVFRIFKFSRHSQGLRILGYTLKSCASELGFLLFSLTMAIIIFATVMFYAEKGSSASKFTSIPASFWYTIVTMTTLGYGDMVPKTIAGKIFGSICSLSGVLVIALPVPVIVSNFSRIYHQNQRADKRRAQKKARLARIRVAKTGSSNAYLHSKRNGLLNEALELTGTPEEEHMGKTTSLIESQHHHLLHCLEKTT
Method: as §1, §2

[1] = Kv4.3 co-expressed with the KChIP

B1: KChIP1: Potassium channel interacting protein 1v, a Ca2+-binding protein that binds and modulates Kv4 channels (protein)
chain: MPARVLLAYPGTEMLTQGESEGLQTLGIVVVLCSSLKLLHYLGLIDLSDDKIEDDLEMTMVCHRPEGLEQLEAQTNFTKRELQVLYRGFKNECPSGVVNEETFKQIYAQFFPHGDASTYAHYLFNAFDTTQTGSVKFEDFVTALSILLRGTVHEKLRWTFNLYDINKDGYINKEEMMDIVKAIYDMMGKYTYPVLKEDTPRQHVDVFFQKMDKNKDGIVTLDEFLESCQEDDNIMRSLQLFQNVM
Q: Which results are given for B1?
A: effect on Kv2.1 currents (HKv2.1): did not appear to have any effect; Activation V1/2 (mV) (HKv2.1; HKv2.1 + 1v): 12.4 mV; Steady-state Inactivation V1/2 (mV) (HKv2.1; HKv2.1 + 1v): −23.9 mV; Peak Current (μA/cell at 50 MV) (HKv2.1; HKv2.1 + 1v, at 50 mV): 2.9 ± 0.37 μA/cell; Inactivation time constant (at 50 mV) (HKv2.1; HKv2.1 + 1v, at 50 mV, listed as head says ms, cell prints s): 1.7 s 0.078; Inactivation time constant (ms ± SEM) (rKv4.3; [1]): 112 ± 3 ms; Peak amplitude (μA ± SEM) (rKv4.3; [1]): 59 ± 5 μA; Inactivation time constant (ms, at 50 mV) (rKv4.3; rKv4.3 + KChIP1, at 50 mV): 135.0 ± 15.1 ms; Peak Current (rKv4.3; rKv4.3 + KChIP1, at 50 mV, unit μA printed in cell): 18.1 μA* ± 3.8; fold increase of inactivation time constant of Kv4.3 (rKv4.3; versus Kv4.3 alone): ~2 fold

Reference: patent US7556938B1, “Nucleic acids encoding potassium channel interactors” (Millennium Pharmaceuticals, Inc., priority 1998, dated 2009)
